Source: the supplement of paper PMC9112550, “Optimization of the antimicrobial peptide Bac7 by deep mutational scanning” (BMC Biology, 2022)

System: Escherichia coli TOP10
Experiment: shrunken log2 fold change of peptide-encoding DNA abundance (4.5 h post-induction vs induction); higher = less antimicrobial activity (less host growth inhibition)
Conditions: time post-induction: 4.5 h; library: site-saturation at positions 5, 18, 19, 20
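Note: peptides expressed intracellularly from a pBAD plasmid library in pooled LB shake-flask culture, induced with 0.3% L-arabinose, DNA abundance read by NGS, three biological replicates, DESeq2 with apeglm shrinkage.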

In order of rising “shrunken log2 fold change” value:
1. RRIRCRPPRLPRPRPRPYNNPRP  -1.23
2. RRIRCRPPRLPRPRPRPYTNPRP  -1.19
3. RRIRCRPPRLPRPRPRPYHNPRP  -1.12
4. RRIRCRPPRLPRPRPRPYHDPRP  -1.05
5. RRIRCRPPRLPRPRPRPYMQPRP  -0.918
6. RRIRCRPPRLPRPRPRPYKRPRP  -0.909
7. RRIRCRPPRLPRPRPRPYSEPRP  -0.766
8. RRIRCRPPRLPRPRPRPYHKPRP  -0.743
9. RRIRCRPPRLPRPRPRPYWKPRP  -0.737
10. RRIRCRPPRLPRPRPRPYCAPRP  -0.642
11. RRIRCRPPRLPRPRPRPWNTPRP  -0.575
12. RRIRDRPPRLPRPRPRPFIHPRP  -0.572
13. RRIRCRPPRLPRPRPRPYLAPRP  -0.44
14. RRIRDRPPRLPRPRPRPANHPRP  -0.438
15. RRIRDRPPRLPRPRPRPCPVPRP  -0.426
16. RRIRDRPPRLPRPRPRPADTPRP  -0.379
17. RRIRCRPPRLPRPRPRPYYDPRP  -0.361
18. RRIRDRPPRLPRPRPRPAYMPRP  -0.342
19. RRIRDRPPRLPRPRPRPCFHPRP  -0.336
20. RRIRDRPPRLPRPRPRPCLPPRP  -0.272
21. RRIRCRPPRLPRPRPRPYRIPRP  -0.263
22. RRIRDRPPRLPRPRPRPFHRPRP  -0.261
23. RRIRDRPPRLPRPRPRPDIQPRP  -0.228
24. RRIRDRPPRLPRPRPRPCNHPRP  -0.218
25. RRIRCRPPRLPRPRPRPWTAPRP  -0.212
26. RRIRCRPPRLPRPRPRPWWVPRP  -0.208
27. RRIRDRPPRLPRPRPRPFIKPRP  -0.206
28. RRIRDRPPRLPRPRPRPAHPPRP  -0.203
29. RRIRCRPPRLPRPRPRPYYGPRP  -0.199
30. RRIRDRPPRLPRPRPRPEHIPRP  -0.193
31. RRIRCRPPRLPRPRPRPWVNPRP  -0.19
32. RRIRCRPPRLPRPRPRPYAHPRP  -0.189
33. RRIRCRPPRLPRPRPRPYDRPRP  -0.188
34. RRIRDRPPRLPRPRPRPDFNPRP  -0.188
35. RRIRDRPPRLPRPRPRPEKPPRP  -0.173
36. RRIRCRPPRLPRPRPRPWLMPRP  -0.159
37. RRIRDRPPRLPRPRPRPAFTPRP  -0.155
38. RRIRDRPPRLPRPRPRPACYPRP  -0.142
39. RRIRDRPPRLPRPRPRPCSYPRP  -0.138
40. RRIRCRPPRLPRPRPRPWWYPRP  -0.136
41. RRIRDRPPRLPRPRPRPCQSPRP  -0.121
42. RRIRDRPPRLPRPRPRPFIYPRP  -0.115
43. RRIRDRPPRLPRPRPRPCVRPRP  -0.111
44. RRIRDRPPRLPRPRPRPCDYPRP  -0.0874
45. RRIRCRPPRLPRPRPRPYHLPRP  -0.0832
46. RRIRCRPPRLPRPRPRPYVRPRP  -0.0787
47. RRIRCRPPRLPRPRPRPYWRPRP  -0.0756
48. RRIRDRPPRLPRPRPRPAHVPRP  -0.0599
49. RRIRCRPPRLPRPRPRPWSQPRP  -0.0595
50. RRIRCRPPRLPRPRPRPYGHPRP  -0.0546
51. RRIRDRPPRLPRPRPRPDYFPRP  -0.052
52. RRIRDRPPRLPRPRPRPCVYPRP  -0.0478
53. RRIRDRPPRLPRPRPRPCHVPRP  -0.0466
54. RRIRCRPPRLPRPRPRPYFGPRP  -0.0436
55. RRIRDRPPRLPRPRPRPFHQPRP  -0.0388
56. RRIRCRPPRLPRPRPRPWLRPRP  -0.0383
57. RRIRDRPPRLPRPRPRPDSYPRP  -0.0336
58. RRIRDRPPRLPRPRPRPERIPRP  -0.0322
59. RRIRDRPPRLPRPRPRPAVRPRP  -0.0321
60. RRIRDRPPRLPRPRPRPCWFPRP  -0.0292
61. RRIRDRPPRLPRPRPRPEREPRP  -0.0248
62. RRIRDRPPRLPRPRPRPEHCPRP  -0.0205
63. RRIRDRPPRLPRPRPRPDGVPRP  -0.0199
64. RRIRDRPPRLPRPRPRPESTPRP  -0.0182
65. RRIRDRPPRLPRPRPRPFHVPRP  -0.0179
66. RRIRDRPPRLPRPRPRPEPIPRP  -0.0153
67. RRIRDRPPRLPRPRPRPCTGPRP  -0.0116
68. RRIRDRPPRLPRPRPRPCEDPRP  -0.0105
69. RRIRDRPPRLPRPRPRPAVMPRP  -0.00993
70. RRIRDRPPRLPRPRPRPCMFPRP  -0.00227
71. RRIRDRPPRLPRPRPRPDQRPRP  -0.00174
72. RRIRDRPPRLPRPRPRPDQPPRP  -0.00151
73. RRIRDRPPRLPRPRPRPDMVPRP  0.00109
74. RRIRCRPPRLPRPRPRPWWDPRP  0.00335
75. RRIRDRPPRLPRPRPRPCQTPRP  0.00442
76. RRIRDRPPRLPRPRPRPDDLPRP  0.00447
77. RRIRDRPPRLPRPRPRPCYWPRP  0.00776
78. RRIRDRPPRLPRPRPRPCEFPRP  0.013
79. RRIRDRPPRLPRPRPRPDKTPRP  0.0138
80. RRIRCRPPRLPRPRPRPWTRPRP  0.0156
81. RRIRDRPPRLPRPRPRPCYIPRP  0.0176
82. RRIRDRPPRLPRPRPRPESYPRP  0.0185
83. RRIRDRPPRLPRPRPRPFEFPRP  0.0215
84. RRIRDRPPRLPRPRPRPDLSPRP  0.0253
85. RRIRDRPPRLPRPRPRPAKEPRP  0.0263
86. RRIRDRPPRLPRPRPRPESHPRP  0.0331
87. RRIRDRPPRLPRPRPRPDVAPRP  0.0356
88. RRIRDRPPRLPRPRPRPDKDPRP  0.0428
89. RRIRDRPPRLPRPRPRPDETPRP  0.0461
90. RRIRDRPPRLPRPRPRPDGPPRP  0.0462
91. RRIRDRPPRLPRPRPRPFEEPRP  0.0467
92. RRIRDRPPRLPRPRPRPDEIPRP  0.0508
93. RRIRDRPPRLPRPRPRPDYLPRP  0.0544
94. RRIRDRPPRLPRPRPRPASCPRP  0.0585
95. RRIRCRPPRLPRPRPRPWRYPRP  0.0621
96. RRIRCRPPRLPRPRPRPWQPPRP  0.0636
97. RRIRCRPPRLPRPRPRPYKEPRP  0.0662
98. RRIRDRPPRLPRPRPRPEPLPRP  0.0701
99. RRIRDRPPRLPRPRPRPAHLPRP  0.0723
100. RRIRDRPPRLPRPRPRPDWKPRP  0.0755
101. RRIRDRPPRLPRPRPRPEIYPRP  0.0907
102. RRIRDRPPRLPRPRPRPCPSPRP  0.114
103. RRIRDRPPRLPRPRPRPCWAPRP  0.125
104. RRIRDRPPRLPRPRPRPCGGPRP  0.132
105. RRIRDRPPRLPRPRPRPDQHPRP  0.132
106. RRIRDRPPRLPRPRPRPAEFPRP  0.149
107. RRIRDRPPRLPRPRPRPATCPRP  0.171
108. RRIRDRPPRLPRPRPRPEFVPRP  0.204
109. RRIRDRPPRLPRPRPRPDSNPRP  0.205
110. RRIRDRPPRLPRPRPRPCLMPRP  0.209
111. RRIRDRPPRLPRPRPRPAENPRP  0.224
112. RRIRDRPPRLPRPRPRPCINPRP  0.224
113. RRIRDRPPRLPRPRPRPFAHPRP  0.228
114. RRIRDRPPRLPRPRPRPAIKPRP  0.235
115. RRIRDRPPRLPRPRPRPDMTPRP  0.242
116. RRIRDRPPRLPRPRPRPEYKPRP  0.27
117. RRIRDRPPRLPRPRPRPAMLPRP  0.278
118. RRIRDRPPRLPRPRPRPAQPPRP  0.278
119. RRIRDRPPRLPRPRPRPAMVPRP  0.282
120. RRIRDRPPRLPRPRPRPAQHPRP  0.288
121. RRIRDRPPRLPRPRPRPADWPRP  0.305
122. RRIRDRPPRLPRPRPRPAFFPRP  0.342
123. RRIRDRPPRLPRPRPRPCVFPRP  0.37
124. RRIRDRPPRLPRPRPRPAICPRP  0.391
125. RRIRDRPPRLPRPRPRPCCFPRP  0.395
126. RRIRDRPPRLPRPRPRPDELPRP  0.414
127. RRIRDRPPRLPRPRPRPASLPRP  0.416
128. RRIRDRPPRLPRPRPRPEVFPRP  0.443
129. RRIRDRPPRLPRPRPRPEIEPRP  0.522
130. RRIRDRPPRLPRPRPRPAPDPRP  0.533
131. RRIRDRPPRLPRPRPRPEVAPRP  0.563
132. RRIRDRPPRLPRPRPRPEHWPRP  0.598
133. RRIRDRPPRLPRPRPRPELRPRP  0.621
134. RRIRDRPPRLPRPRPRPESCPRP  0.629
135. RRIRDRPPRLPRPRPRPCEMPRP  0.63
136. RRIRDRPPRLPRPRPRPACFPRP  0.664
137. RRIRDRPPRLPRPRPRPAPTPRP  0.684
138. RRIRDRPPRLPRPRPRPEPNPRP  0.746
139. RRIRDRPPRLPRPRPRPEEKPRP  0.766
140. RRIRDRPPRLPRPRPRPDAPPRP  0.788
141. RRIRDRPPRLPRPRPRPESNPRP  0.892
142. RRIRDRPPRLPRPRPRPEDLPRP  0.902
143. RRIRDRPPRLPRPRPRPALGPRP  0.933
144. RRIRDRPPRLPRPRPRPEVQPRP  0.988
145. RRIRDRPPRLPRPRPRPALFPRP  0.99
146. RRIRDRPPRLPRPRPRPEDHPRP  1.08
147. RRIRDRPPRLPRPRPRPETRPRP  1.11
148. RRIRDRPPRLPRPRPRPEANPRP  1.28
149. RRIRDRPPRLPRPRPRPELMPRP  1.68
150. RRIRDRPPRLPRPRPRPEEAPRP  2.05
